# Data as given in US20060039927A1 (US Dept. of Health and Human Services, published 2006).
# B1: sgp130-Fc (R&D Systems), a fusion protein of sgp130 and human IgG Fc (Fc fusion)
# chain: ELLDPCGYISPESPVVQLHSNFTAVCVLKEKCMDYFHVNANYIVWKTNHFTIPKEQYTIINRTASSVTFTDIASLNIQLTCNILTFGQLEQNVYGITIISGLPPEKPKNLSCIVNEGKKMRCEWDGGRETHLETNFTLKSEWATHKFADCKAKRDTPTSCTVDYSTVYFVNIEVWVEAENALGKVTSDHINFDPVYKVKPNPPHNLSVINSEELSSILKLTWTNPSIKSVIILKYNIQYRTKDASTWSQIPPEDTASTRSSFTVQDLKPFTEYVFRIRCMKEDGKGYWSDWSEEASGITYEDRPSKAPSFWYKIDPSHTQGYRTVQLVWKTLPPFEANGKILDYEVTLTRWKSHLQNYTVNATKLTVNLTNDRYLATLTVRNLVGKSDAAVLTIPACDFQATHPVMDLKAFPKDNMLWVEWTTPRESVKKYILEWCVLSDKAPCITDWQQEDGTVHRTYLRGNLAESKCYLITVTPVYADGPGSPESIKAYLKQAPPSKGPTVRTKKVGKNEAVLEWDQLPVDVQNGFIRNYTIFYRTIIGNETAVNVDSSHTEYTLSSLTSDTLYMVRMAAYTDEGGKDGPEFTFTTPKFAQGEIE
# notes: extracellular domain; Immobilized on the CM5 chip in the BIAcore work; the results text calls it sgp130; also called immobilized sgp130; not shown: human IgG Fc
# What was measured:
# [1] = target: T1, maltose binding protein (MBP), control (UniProt P0AEX9 27-392 = MBP); test: surface plasmon resonance (BIAcore 2000), sgp130 immobilized at 1.5 ng/mm2
# [2] = target: T1, maltose binding protein (MBP), control; test: indirect ELISA, receptor immobilized
# Description: Reactions were visualized by using tetramethoxybenzene peroxidase substrate (Kirkegaard & Perry Laboratories, Gaithersburg, Md.), followed by 2N H2SO4. The interference of vIL-6 binding to sgp130 by mAbs was analyzed in a similar manner. […] The mixture was applied to the plates coated with sgp130 (2 μg/ml) after SuperBlock treatment. The protein complex was detected by streptavidin-HRP (1:1000; Kirkegaard & Perry Laboratories), and the peroxidase activity was visualized by tetramethoxybenzene peroxidase substrate, followed by 2N H₂SO₄. Plates were read at 450 nm with λ correction at 630 m using a microplate reader.
# [3] = target: B1; test: SPR (BIAcore 2000), equilibrium data, Scatchard analysis, sgp130-Fc immobilized
# [4] = target: B1; test: SPR Kd of this filing against a previously reported Kd (1.7 nM) of the human IL-6/sIL-6Rα complex
# [5] = target: B1; test: SPR (BIAcore 2000), sgp130-Fc immobilized on CM5, MBPvIL-6 in flow, 1:1 Langmuir binding model
binder,measurement,setting,value
B1,binding result,[1],no binding
"purified recombinant human sgp130 (R&D Systems) (receptor, extracellular domain; Used in the ELISA assays; Bought; also called soluble gp130) ELLDPCGYISPESPVVQLHSNFTAVCVLKEKCMDYFHVNANYIVWKTNHFTIPKEQYTIINRTASSVTFTDIASLNIQLTCNILTFGQLEQNVYGITIISGLPPEKPKNLSCIVNEGKKMRCEWDGGRETHLETNFTLKSEWATHKFADCKAKRDTPTSCTVDYSTVYFVNIEVWVEAENALGKVTSDHINFDPVYKVKPNPPHNLSVINSEELSSILKLTWTNPSIKSVIILKYNIQYRTKDASTWSQIPPEDTASTRSSFTVQDLKPFTEYVFRIRCMKEDGKGYWSDWSEEASGITYEDRPSKAPSFWYKIDPSHTQGYRTVQLVWKTLPPFEANGKILDYEVTLTRWKSHLQNYTVNATKLTVNLTNDRYLATLTVRNLVGKSDAAVLTIPACDFQATHPVMDLKAFPKDNMLWVEWTTPRESVKKYILEWCVLSDKAPCITDWQQEDGTVHRTYLRGNLAESKCYLITVTPVYADGPGSPESIKAYLKQAPPSKGPTVRTKKVGKNEAVLEWDQLPVDVQNGFIRNYTIFYRTIIGNETAVNVDSSHTEYTLSSLTSDTLYMVRMAAYTDEGGKDGPEFTFTTPKFAQGEIE",binding result,[2],no binding
"purified recombinant human sIL-6Rα (R&D Systems) (receptor, extracellular domain; Bought; also called soluble IL-6Rα) LAPRRCPAQEVARGVLTSLPGDSVTLTCPGVEPEDNATVHWVLRKPAAGSHPSRWAGMGRRLLLRSVQLHDSGNYSCYRAGRPAGTVHLLVDVPPEEPQLSCFRKSPLSNVVCEWGPRSTPSLTTKAVLLVRKFQNSPAEDFQEPCQYSQESQKFSCQLAVPEGDSSFYIVSMCVASSVGSKFSKTQTFQGCGILQPDPPANITVTAVARNPRWLSVTWQDPHSWNSSFYRLRFELRYRAERSKTFTTWMVKDLQHHCVIHDAWSGLRHVVQLRAQEEFGQGEWSEWSPEAMGTPWTESRSPPAENEVSTPMQALTTNKDDDNILFRDSANATSLPVQDSSSVPLP",binding result,[2],no binding
"MBPvIL-6 (fusion of maltose binding protein, a factor Xa cleavage site and amino acids 22-204 of KSHV vIL-6) (ligand, biotinylated in the sgp130 interference ELISA (sites not given), range 22-204; also called recombinant vIL-6; full length MBPvIL-6; not shown: factor Xa cleavage site and vector linker between MBP and vIL-6) GKLPDAPEFEKDLLIQRLNWMLWVIDECFRDLCYRTGICKGILEPAAIFHLKLPAINDTDHCGLIGFNETSCLKKLADGFFEFEVLFKFLTTEFGKSVINVDVMELLTKTLGWDIQEELNKLTKTHYSPPKFDRGLLGRLQGLKYWVRHFASFYVLSAMEKFAGQAVRVLNSIPDVTPDVHDK",Kd,[3],2500 nM
same,fold lower binding affinity than human IL-6/sIL-6Rα complex to gp130,[4],1000 fold
same,Kd,[5],2200 nM
same,koff,[5],0.0022 s⁻¹
same,kon,[5],980 M⁻¹ s⁻¹
